Experimental data as given in patent US20160082083A1 (NATIONAL RESEARCH COUNCIL OF CANADA, published 2016).

B1: IGFBP-6 (from R&D systems) (other)
chain: RCPGCGQGVQAGCPGGCVEEEDGGSPAEGCAEAEGCLRREGQECGVYTPNCAPGLQCHPPKDDEAPLRALLLGRGRCLPARAPAVAEENPKESKPQAGTARPQDVNRRDQQRNPGTSTTPSQPNSAGVQDTEMGPCRRHLDSVLQQLQTEVYRGAQTLYVPNCDHRGFYRKRQCRSSQGQRRGPCWCVDRMGKSLPGSPDGNGSSSCPTGSSG
B2: IGFBP-5 C-terminal fragment (aas 177-272) (other)
chain: IASIISAPEMRQESEQGPCRRHMEASLQELKASPRMVPRAVYLPNCDRKGFYKRKQCKPSRGRKRGICWCVDKYGMKLPGMEYVDGDFQCHTFDSSNVEDPWSHPQFEKTGHHHHHHHHGGQ
B3: IGFBP-2 (from R&D systems) (other)
chain: MLPRVGCPALPLPPPPLLPLLPLLLLLLGASGGGGGARAEVLFRCPPCTPERLAACGPPPVAPPAAVAAVAGGARMPCAELVREPGCGCCSVCARLEGEACGVYTPRCGQGLRCYPHPGSELPLQALVMGEGTCEKRRDAEYGASPEQVADNGDDHSEGGLVENHVDSTMNMLGGGGSAGRKPLKSGMKELAVFREKVTEQHRQMGKGGKHHLGLEEPKKLRPPPARTPCQQELDQVLERISTMRLPDERGPLEHLYSLHIPNCDKHGLYNLKQCKMSLNGQRGECWCVNPNTGKLIQGAPTIRGDPECHLFYNEQQEARGVHTQRMQ
B4: CIBP6 (aas 151-240) (other)
chain: IARNSAGVQDTEMGPCRRHLDSVLQQLQTEVYRGAQTLYVPNCDHRGFYRKRQCRSSQGQRRGPCWCVDRMGKSLPGSPDGNGSSSCPTGSSGSSTGHHHHHHHHG
B5: IGFBP-2 full-length protein (aas 1-328), produced at BRI-NRC (other)
chain: MLPRVGCPALPLPPPPLLPLLPLLLLLLGASGGGGGARAEVLFRCPPCTPERLAACGPPPVAPPAAVAAVAGGARMPCAELVREPGCGCCSVCARLEGEACGVYTPRCGQGLRCYPHPGSELPLQALVMGEGTCEKRRDAEYGASPEQVADNGDDHSEGGLVENHVDSTMNMLGGGGSAGRKPLKSGMKELAVFREKVTEQHRQMGKGGKHHLGLEEPKKLRPPPARTPCQQELDQVLERISTMRLPDERGPLEHLYSLHIPNCDKHGLYNLKQCKMSLNGQRGECWCVNPNTGKLIQGAPTIRGDPECHLFYNEQQEARGVHTQRMQGSGWSHPQFEKTGHHHHHHHHGGQ
B6: IGFBP-2 C-terminal fragment (aas 207-328 of SEQ ID NO: 3) (other)
chain: IASKGGKHHLGLEEPKKLRPPPARTPCQQELDQVLERISTMRLPDERGPLEHLYSLHIPNCDKHGLYNLKQCKMSLNGQRGECWCVNPNTGKLIQGAPTIRGDPECHLFYNEQQEARGVHTQRMQDPWSHPQFEKTGHHHHHHHHGGQ

Molecular target: cathepsin B (human, UniProt P07858 80-333)
Experiment: cell-based or functional assay

Binder | inhibition of secreted cathepsin B activity in U87MG CM, overnight incubation with 20 nM protein | inhibition of intracellular cathepsin B activity (Magic Red) in U87MG cells, overnight incubation with 20 nM protein
B1 | ~60% | –
B2 | – | ~50%
B3 | – | ~50%
B4 | ~60% | –
B5 | ~60% | ~50%
B6 | ~70% | ~50%
